Test results published in the supplement of paper PMC12338614.

B1: library; numbered along this chain (parent)
chain: MEVVDPQQLGMFTEGELMSVGMDTFIHRIDSTEVIYQPRRKRAKLIGKYLMGDLLGEGSYGKVKEVLDSETLCRRAVKILKKKKLRRIPNGEANVKKEIQLLRRLRHKNVIQLVDVLYNEEKQKMYMVMEYCVCGMQEMLDSVPEKRFPVCQAHGYFCQLIDGLEYLHSQGIVHKDIKPGNLLLTTGGTLKISDLGVAEALHPFAADDTCRTSQGSPAFQPPEIANGLDTFSGFKVDIWSAGVTLYNITTGLYPFEGDNIYKLFENIGKGSYAIPGDCGPPLSDLLKGMLEYEPAKRFSIRQIRQHSWFRKKHPPAEAPVPIPPSPDTKDRWRSMTVVPYLEDLHGADEDEDLFDIEDDIIYTQDFTVPGQVPEEEASHNGQRRGLPKAVCMNGTEAAQLSTKSRAEGRAPNPARKACSASSKIRRLSACKQQ

Variants of: B1
Experiment: STK11 functional score (HeLa growth suppression), rescaled enrichment; synonymous median = 1, nonsense median = 0 (normalised score)
Details: with HeLa; variant type: missense
Outline: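 The functional score takes the post/pre-selection log ratio, corrects it to wild type, rescales it to synonymous and nonsense medians, and merges it over codons and replicate transfections, with error from bootstrapping. Counts came from tiled gDNA amplicons sequenced on NextSeq (~2 million reads per tile). The libraries were POPCode codon-randomised, codon-optimised STK11 integrated by Bxb1 at an AAVS1 landing pad in HeLa, three regions with three transfections each.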

STK11 functional score of substitutions, site by site:
R426: T 1.17; F 1.3; N 1.58; L 1.4; C 1.12; K 1.49; I 1.15; S 1.5; D 1.42; Y 1.54; G 1.1; H 1.61; A 0.525; V 1.62
C418: L 1.46; E 1.58; I 1.41; H 1.17; D 1.57; T 1.58; V 1.62; S 1.51; A 1.62; Y 1.6; G 1.61; R 1.54; M 1.54
S421: N 1.6; I 1.52; L 1.62; K 1.45; R 1.44; D 1.62; C 0.549; Y 1.61; V 1.38; G 1.38; F 1.08; T 1.12; E 1.56
P413: Y 1.47; W 0.886; R 1.49; N 1.6; V 1.4; H 1.61; T 1.44; S 1.46; L 1.31; M 1.53; K 1.55; I 1.56
S422: R 1.47; W 1.4; C 1.44; L 1.17; D 1.59; F 1.4; Y 1.54; A 1.5; I 1.3; Q 1.58; V 1.05; G 1.49; N 0.705; T 0.705; K 1.53; E 1.49
K431: S 1.64; F 1.59; C 1.59; M 1.25; Y 1.48; L 1.6
Q433: H 1.2; R 0.937
A414: F 1.38; W 1.63; K 1.55; V 1.48; C 1.59; L 1.16; G 1.21; I 1.33; S 1.57; Y 1.58; M 1.56; D 0.946; R 1.58; E 1.54
Q432: L 1.55; R 1.6; W 1.59; Y 1.63; G 1.61; D 1.46
S419: E 1.24; Y 1.61; H 1.63; F 1.46; A 1.37; D 1.1; V 0.892; G 1.58; L 1.17; K 1.39; N 1.54; I 1.16
S428: D 1.21; E 1.63; Y 1.39; N 0.872; T 1.56; G 1.6; F 1.61; L 0.874; V 1.56; C 1.4; W 1.62; I 1.62; K 0.386; A 1.14
A429: Y 1.49; C 1.62; Q 1.56; I 1.63; P 0.559; R 1.5; D 1.52; G 1.12; W 1.21; V 1.47; L 1.48; T 0.896; K 1.49; E 1.55; S 1.29
I424: W 0.789; T 1.49; D 1.54; S 1.37; A 1.58; M 1.42; N 1.44; G 0.657; R 1.5; F 1.04; Q 1.55; K 1.22; Y 1.12; C 1.35; V 1.33; L 1.34
A417: P 1.2; N 1.55; G 1.47; F 1.15; T 1.55; I 1.51; E 1.22; H 0.849; C 1.24; M 1.47; D 1.41; V 0.845; S 1.25; L 1.51; R 1.6
K416: N 0.923; C 1.14; P 1.61; G 1.55; I 1.55; F 0.683; W 0.693; D 1.61; Q 1.46; M 1.67; S 1.55; H 1.42; Y 1.2; R 1.54; L 0.986; T 1.37; V 1.39
A420: L 1.61; G 1.52; V 1.52; R 1.51
R425: M 1.51; D 1.61; L 1.4; W 1.03; Y 1.54; P 1.51; V 0.938; C 1.27; T 1.52; H 1.56; E 1.23; S 1.54; A 1.59; G 1.55; F 1.11; N 1.62; I 0.977
R415: F 0.952; N 1.58; L 1.61; S 1.5; K 1.17; T 0.914; C 1.25; I 0.924; W 1.5; D 1.43; G 1.53; H 1.6; V 1.57; Y 1.49; M 1.4; E 1.48
K423: F 1.07; Q 0.701; A 0.687; C 1.58; L 1.45; H 0.899; S 1.56; V 1.28; N 1.52; G 1.56; T 1.57; W 1.49; D 1.14; Y 1.41; R 1.17; I 1.25; E 1.62
C430: W 1.02; S 1.56; V 1.03; F 1.48; G 1.55
L427: R 1.56; Y 0.805; I 1.36; A 1.6; W 1.53; N 1.63; F 1.31; H 1.4; C 0.695; V 1.21; E 1.53; T 1.59; S 1.55; K 1.53
